According to patent US20250136694A1 (HARBOUR BIOMED SHANGHAI, published 2025):

T1: cynomolgus monkey B7-H4 on the cell surface (cynomolgus monkey, UniProt A0A2K5U6P5 25-282)
T1 construct: whole, on cells; also called cyno B7-H4; CHO-K1/cynoB7-H4
T1 sequence: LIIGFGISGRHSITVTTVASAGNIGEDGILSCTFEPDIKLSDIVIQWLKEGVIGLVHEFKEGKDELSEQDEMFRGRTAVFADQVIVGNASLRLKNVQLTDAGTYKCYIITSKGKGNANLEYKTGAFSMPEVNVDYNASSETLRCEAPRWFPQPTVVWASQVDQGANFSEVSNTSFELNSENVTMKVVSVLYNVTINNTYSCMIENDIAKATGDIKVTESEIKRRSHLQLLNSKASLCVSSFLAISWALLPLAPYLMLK

T2: human B7-H4 on the cell surface (human, UniProt Q7Z7D3 25-282)
T2 construct: whole, on cells; also called hu B7-H4; CHO-K1/huB7-H4
T2 sequence (looked up): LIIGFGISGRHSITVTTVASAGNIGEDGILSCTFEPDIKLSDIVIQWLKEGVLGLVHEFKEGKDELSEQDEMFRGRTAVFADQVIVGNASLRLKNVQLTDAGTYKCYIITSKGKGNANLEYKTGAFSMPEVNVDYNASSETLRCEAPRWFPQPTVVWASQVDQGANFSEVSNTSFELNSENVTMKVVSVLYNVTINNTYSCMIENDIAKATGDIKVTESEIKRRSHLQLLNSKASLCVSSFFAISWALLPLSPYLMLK

T3: human B7-H4 (protein in solution, BLI) (human, UniProt Q7Z7D3 25-258, limits assumed)
T3 sequence (looked up): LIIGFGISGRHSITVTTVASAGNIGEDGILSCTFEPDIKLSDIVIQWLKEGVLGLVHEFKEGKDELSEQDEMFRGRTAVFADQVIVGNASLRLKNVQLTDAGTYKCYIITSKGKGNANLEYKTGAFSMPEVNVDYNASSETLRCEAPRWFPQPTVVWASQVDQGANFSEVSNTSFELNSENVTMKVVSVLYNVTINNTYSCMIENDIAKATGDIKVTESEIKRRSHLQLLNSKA

T4: mouse B7-H4 on the cell surface (mouse, UniProt Q7TSP5 25-257)
T4 construct: whole, on cells; also called m B7-H4; CHO-K1/mB7-H4
T4 sequence (looked up): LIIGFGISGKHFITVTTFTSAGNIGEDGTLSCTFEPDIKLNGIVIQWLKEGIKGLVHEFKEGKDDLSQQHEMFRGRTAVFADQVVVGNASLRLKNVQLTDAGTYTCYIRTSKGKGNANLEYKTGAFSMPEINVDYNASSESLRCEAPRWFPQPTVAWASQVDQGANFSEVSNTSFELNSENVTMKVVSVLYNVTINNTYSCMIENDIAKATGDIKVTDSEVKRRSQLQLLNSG


How the values were obtained:
[1] = target: T1, cynomolgus monkey B7-H4 on the cell …; assay: FACS, CHO-K1/cyno B7-H4 cells
Procedure: (§1) Briefly, cells were digested and resuspended in PBS containing 2% FBS, and the cell density was adjusted to 1×10⁶ cells/mL. The cells were seeded in a 96-well V-bottom plate (Corning, Cat #3894) at 100 μL/well, followed by the addition of test antibodies 3-fold serially diluted at a concentration that was 2 times the final concentration, each at 100 μL/well. The cells were incubated away from light at 4° C. for 2 h. Then, the cells in each well were rinsed twice with 100 μL of pre-cooled PBS and centrifuged at 500 g at 4° C. for 5 min, and then the supernatant was discarded. […] The cells in each well were then rinsed twice with 100 μL of pre-cooled PBS and centrifuged at 500 g at 4° C. for 5 min, and then the supernatant was discarded. Finally, the cells in each well were resuspended in 200 μL of pre-cooled PBS, and the fluorescence signal values were read using ACEA Novocyte3000.

[2] = target: T2, human B7-H4 on the cell surface; assay: FACS, CHO-K1/hu B7-H4 cells
Procedure: as §1

[3] = target: T3, human B7-H4 (protein in solution, BLI); assay: BLI (Octet), antibody captured on AHC sensor, antigen in solution
Procedure: The binding kinetics between the antigen and the antibody was analyzed by the biolayer interferometry (BLI) technique using an Octet Red 96e molecular interaction analyzer (Fortebio).
When the affinity of the antigen for the antibody was determined, the rotation speed of the sensor was set at 1000 rpm/min. […] Finally, the AHC sensor was immersed in a 10 mM glycine-hydrochloric acid solution at pH 1.5 for regeneration to elute the proteins bound to the sensor.
When data analysis was performed using Octet Data Analysis software (Fortebio, version 11.0), 0 nM was taken as a reference well, and reference subtraction was performed; the “1:1 Global fitting” method was selected to fit the data, and the kinetics parameters of the binding of antigens to antigen-binding proteins were calculated, with kₒₙ(1/Ms) values, kdis(1/s) values, and KD(M) values obtained (see Table 3 and FIG. 2).

[4] = target: T2, human B7-H4 on the cell surface; assay: FACS, MDA-MB-468 cells
Procedure: as §1

[5] = target: T4, mouse B7-H4 on the cell surface; assay: FACS, CHO-K1/m B7-H4 cells
Procedure: as §1

[6] = target: T4, mouse B7-H4 on the cell surface; assay: FACS on CHO-K1/mB7-H4 cells
[7] = target: T2, human B7-H4 on the cell surface; assay: FACS, CHO-K1/hu B7-H4 cells; remark: listed apart in the source
Procedure: as §1

| EC50 [1] [nM] | Maximum MFI [1] [MFI] | EC50 [2] [nM] | Kd [3] [nM] | koff [3] [s⁻¹] | kon [3] [M⁻¹ s⁻¹] | EC50 [4] [nM] | Maximum MFI [4] [MFI] | EC50 [5] [nM] | binding result [6] | EC50 [7] [nM] | Maximum MFI [7] [MFI] | Binder |
| --- | --- | --- | --- | --- | --- | --- | --- | --- | --- | --- | --- | --- |
| 0.432 | 1.25e+06 | 1.07 | 3.65 | 0.00114 | 312000 | 0.162 | 149000 | 0.403 | – | – | – | PR006008 (antibody, IgG1, V domains shown, also called R7004M6D4; anti-human B7-H4 HCAb monoclonal antibody) VH: EVQLVESGGGLVQPGGSLRLSCAASGFTFTDFWMHWVRQVPGKGREWVSRISPDGSSTSYEDSVKGRFTISRDNAKNTVYLQMHGLRAEDTAVYYCTRFSTGWHRIEYFQHWGQGTLVTVSS |
| 0.721 | 1.26e+06 | – | – | – | – | 0.244 | 148000 | 0.617 | – | – | – | PR007441 (antibody, IgG1, V domains shown, also called PTM variant (G55S) of PR006008) VH: EVQLVESGGGLVQPGGSLRLSCAASGFTFTDFWMHWVRQVPGKGREWVSRISPDSSSTSYEDSVKGRFTISRDNAKNTVYLQMHGLRAEDTAVYYCTRFSTGWHRIEYFQHWGQGTLVTVSS |
| 1.65 | 1.57e+06 | 4.86 | 1.89 | 0.000396 | 210000 | 5.19 | 183000 | – | no binding (tested: 100 nM) | 2.75 | 1.63e+06 | PR006004 (antibody, V domains shown, also called R7004M1A2; anti-human B7-H4 HCAb monoclonal antibody) VH: EVQLVESGGGLVQPGGSLRLSCAASGFAFSNYWMHWARQVPGKGRVWISRISGDGRSTSYADSVKGRFTISRDNAKNMVYLQMNNLRAEDTAVYYCARDRFGDDYYYGMNVWGQGTTVTVSS |
| – | – | – | – | – | – | – | – | – | – | 3.72 | 971000 | PR007196 (antibody, IgG1, V domains shown, also called charge variant of PR006004 (V46E, G55S, R56E)) VH: EVQLVESGGGLVQPGGSLRLSCAASGFAFSNYWMHWARQVPGKGREWISRISGDSESTSYADSVKGRFTISRDNAKNMVYLQMNNLRAEDTAVYYCARDRFGDDYYYGMNVWGQGTTVTVSS |
| – | – | – | – | – | – | – | – | – | – | 5.58 | 1.51e+06 | PR007202 (antibody, IgG1, V domains shown, also called charge variant of PR006004 (V46E, G55S, R56T)) VH: EVQLVESGGGLVQPGGSLRLSCAASGFAFSNYWMHWARQVPGKGREWISRISGDSTSTSYADSVKGRFTISRDNAKNMVYLQMNNLRAEDTAVYYCARDRFGDDYYYGMNVWGQGTTVTVSS |
| 3.06 | 1.59e+06 | – | – | – | – | 9.18 | 185000 | – | no binding (tested: 100 nM) | – | – | PR007440 (antibody, IgG1, V domains shown, also called PTM variant (G55S) of PR006004) VH: EVQLVESGGGLVQPGGSLRLSCAASGFAFSNYWMHWARQVPGKGRVWISRISGDSRSTSYADSVKGRFTISRDNAKNMVYLQMNNLRAEDTAVYYCARDRFGDDYYYGMNVWGQGTTVTVSS |
| – | – | – | – | – | – | – | – | – | – | 5.41 | 1.53e+06 | PR007203 (antibody, IgG1, V domains shown, also called charge variant of PR006004 (V46E, G55S, R56T, A61E)) VH: EVQLVESGGGLVQPGGSLRLSCAASGFAFSNYWMHWARQVPGKGREWISRISGDSTSTSYEDSVKGRFTISRDNAKNMVYLQMNNLRAEDTAVYYCARDRFGDDYYYGMNVWGQGTTVTVSS |
| – | – | – | – | – | – | – | – | – | – | 5.5 | 1.46e+06 | PR007201 (antibody, IgG1, V domains shown, also called charge variant of PR006004 (V46E, G55S, R56S, A61E)) VH: EVQLVESGGGLVQPGGSLRLSCAASGFAFSNYWMHWARQVPGKGREWISRISGDSSSTSYEDSVKGRFTISRDNAKNMVYLQMNNLRAEDTAVYYCARDRFGDDYYYGMNVWGQGTTVTVSS |
| – | – | – | – | – | – | – | – | – | – | 5.39 | 1.48e+06 | PR007200 (antibody, IgG1, V domains shown, also called charge variant of PR006004 (V46E, G55S, R56S)) VH: EVQLVESGGGLVQPGGSLRLSCAASGFAFSNYWMHWARQVPGKGREWISRISGDSSSTSYADSVKGRFTISRDNAKNMVYLQMNNLRAEDTAVYYCARDRFGDDYYYGMNVWGQGTTVTVSS |
| – | – | – | – | – | – | – | – | – | – | 5.65 | 1.58e+06 | PR007195 (antibody, IgG1, V domains shown, also called charge variant of PR006004 (V46E, G55S, R56D, A61E)) VH: EVQLVESGGGLVQPGGSLRLSCAASGFAFSNYWMHWARQVPGKGREWISRISGDSDSTSYEDSVKGRFTISRDNAKNMVYLQMNNLRAEDTAVYYCARDRFGDDYYYGMNVWGQGTTVTVSS |
